Legend:
[1] = target: murine CTLA4 (muCTLA4hsIgG protein); assay: Low density antigen binding ELISA, with MMP2 activation (Example 3B)
Description: All ELISA were performed in a manner substantially similar to the description below or generally consistent with methods known in the art. Polysterene 96-well microplates (Thermo Fisher Scientific) were coated with 3 ng muCTLA4hsIgG protein (Abcam) per well and stored overnight at 4° C. Plates were washed with 0.1% Tween in TBS (TBS-T), blocked with 1% BSA (Fisher) in PBS for 2 hours at 4° C., and washed with TBS-T. Serial dilutions of tested antibody in 0.05% Tween+1% BSA in PBS (PBS-TB) were added to the plate and incubated at room temperature for 1 hour. After washing with TBS-T, HRP-conjugated goat anti-mouse Kappa light chain antibody (Abcam) diluted 1:4000 in PBS-TB was applied to the wells and incubated at room temperature for 1 hour. Plates were washed with TBS-T, chemiluminescent HRP substrate was applied to plate, and luminescence was recorded using a spectrophotometer (Synergy HT, BioTek). Data was analyzed with GraphPad Prism, version 7.02.
Parental anti-CTLA4 antibodies, masked anti-CTLA4 antibodies, and non-cleavable masked anti-CTLA4 antibodies were each diluted to 1 μM solution in cleavage buffer (150 mM NaCl; 50 mM Tris, pH 7.5; 10 mM CaCl2; 0.02% NP-40). Recombinant MMP2 (R&D Systems) activated with 1 mM p-aminophenylmercuric acetate […] for 1 hour at 37° C. was added to each antibody solution to a final concentration of 4 nM and incubated overnight at 37° C. […]

murine CTLA4-Fc = target: T1, murine CTLA4-Fc (Mus musculus, UniProt P09793); assay: ELISA binding to murine CTLA4-Fc, with MMP2 cleavage (Example 3A); settings: MMP2, 37° C. overnight
T1 construct: purchased R&D Systems
T1 sequence (P09793 with tags, fused parts or gaps limits assumed): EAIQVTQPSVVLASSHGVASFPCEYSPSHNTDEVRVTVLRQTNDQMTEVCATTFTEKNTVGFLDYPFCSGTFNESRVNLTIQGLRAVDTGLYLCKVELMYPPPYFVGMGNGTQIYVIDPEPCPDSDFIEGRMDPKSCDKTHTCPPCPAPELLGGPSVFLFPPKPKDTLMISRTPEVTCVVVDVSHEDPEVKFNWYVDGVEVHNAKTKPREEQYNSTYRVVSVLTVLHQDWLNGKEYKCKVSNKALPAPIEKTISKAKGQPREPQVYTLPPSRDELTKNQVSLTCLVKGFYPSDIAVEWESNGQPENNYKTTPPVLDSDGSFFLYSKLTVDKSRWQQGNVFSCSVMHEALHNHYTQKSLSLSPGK
Description: ELISA plates were coated overnight in TBS with murine CTLA4-Fc (R&D Systems) and then washed with TBS with 0.05% Tween 20, and blocked with 1% BSA in PBS followed by washing with TBS with Tween 20. Dilutions of parental anti-CTLA4 antibodies and masked anti-CTLA4 antibodies in PBS were allowed to bind to CTLA4 for 60 minutes before washing with TBS Tween 20. Binding was detected with anti-muKappa-HRP (Abcam) and Super Signal Pico Chemiluminescent Substrate. Masked ratio was determined from the EC50 precleavage masked anti-CTLA4 antibody to the EC50 for parental anti-CTLA4 antibody.
Parental anti-CTLA4 antibodies and masked anti-CTLA4 antibodies were incubated with 6 nM of MMP2 (R&D Systems) in 150 mM NaCl, 50 mM Tris, pH 7.5, 10 mM CaCl2, 0.02% NP-40) at 37° C. overnight. Antibody dilutions were tested for binding to murine CTLA4-Fc by the ELISA described above and by reduced-SDS-PAGE analysis, using “Any Kd Stain-Free pre-cast polyacrylamide gels” (Bio-Rad).

MC38 tumors [2] = assay: MC38 mouse colorectal carcinoma model, tumor and Treg analysis (Example 4B); type: in vivo, C57BL/6 mice
Description: The effects of activatable masked anti-CTLA4 antibodies on tumor growth as well as immune parameters in the tumor and in the periphery were investigated using a MC38 mouse colorectal carcinoma model, previously shown to respond to treatment with the 9D9 antibody. See Peggs K. S. et al., J Exp Med., 206:1717-1725, (2009) and Selby M. J., et al., Cancer Immunol Res., 1:32-42, (2013).
To assess anti-tumor efficacy, antibodies formulated in PBS were administered intraperitoneally (i.p.) on day 1 post-randomization at […] per dose in a volume of ≤250 μL. Tumor volumes were determined twice weekly. All mice were monitored individually and sacrificed upon either tumor volume reaching 1500 mm3 or 45 days post-randomization. To assess biological function of antibodies on regulatory T cells (Tregs) by FACS analysis as described below, tumor-bearing mice were administered antibody intraperitoneally on days 1, 4, and 8 post-randomization at […] per dose in a volume of ≤250 μL. The control antibody was muIgG2a (BioXcell). All mice were sacrificed on day 9; tumor and spleen were harvested for FACS analysis.
Mouse tumor samples were dissociated according to standard protocol by Tumor Dissociation Kit (gentleMACS) and passed through a 70 μm cell strainer. Spleen samples were dissociated with the back of a syringe in a 70 μm cell strainer. Red blood cells were lysed with ACK buffer (Lonza). Final cell suspensions were washed and resuspended in Staining Buffer (PBS pH 7.4, 2.5% FBS, 0.09% NaN3) at 2×10^7 cells/mL. Cells were treated with Mu Trustain fcX (BioLegend) to block Fc receptors prior to being stained with antibodies against CD45 (BioLegend), CD3 (BioLegend), CD4 (BioLegend), CD8 (BD Biosciences), CD25 (BioLegend), and Live/Dead Aqua (ThermoFisher). For intracellular staining, cells were fixed, permeabilized, and stained with antibodies against FoxP3 (eBioscience) and Ki-67 (eBioscience). Single color stains and FMOs were run for gating purposes.

MC38 tumors [3] = assay: MC38 tumor eradication and T cell population analysis (Example 4A); type: in vivo, C57Bl/6 mice
Description: C57Bl/6 mice with 50-100 mm^3 MC38 tumors were administered intraperitoneally a single dose of 200 μg of IgG2a control (BioXcel), parental anti-CTLA4 antibody reactive to murine CTLA4 (9D9.IgG2a, light chain comprising SEQ ID NO:237, heavy chain comprising SEQ ID NO:319), activatable masked anti-CTLA4 antibody reactive to murine CTLA4 (light chain comprising SEQ ID NO:238, heavy chain comprising SEQ ID NO:319), masked anti-CTLA4 antibody 1005 reactive to murine CTLA4 (light chain comprising SEQ ID NO:240, heavy chain comprising SEQ ID NO:319), or anti-CTLA4 antibody 1 cross-reactive with human CTLA4 and murine CTLA4 (light chain comprising SEQ ID NO:327, heavy chain comprising SEQ ID NO:366). Body weight and tumor size were measured biweekly.
C57Bl/6 mice with 50-100 mm^3 MC38 tumors were dosed with three […] doses on day 1, 4, and 8 with IgG2a control (BioXcel), parental anti-CTLA4 antibody (9D9.IgG2a, light chain comprising SEQ ID NO:237, heavy chain comprising SEQ ID NO:319 masked anti-CTLA4 antibody 2 (light chain comprising SEQ ID NO:238, heavy chain comprising SEQ ID NO:319), masked anti-CTLA4 antibody 1005 (light chain comprising SEQ ID NO:240, heavy chain comprising SEQ ID NO:319), or anti-CTLA4 antibody 1 cross-reactive with human CTLA4 and murine CTLA4 (light chain comprising SEQ ID NO:327, heavy chain comprising SEQ ID NO:366). On day 9, mice were sacrificed and tumors were dissociated using gentleMACS™ protocol “Tumor Dissociation Kit” (Milteni) and filtered through a 70 micron cell strainer and rinsed twice in PBS/2.5% FBS buffer to remove enzymatic buffer. […] and spleen cells were dissociated by gently grinding the tissue across a mesh. Red blood cells were lysed with ACK buffer (Thermo Fisher) prior to staining of the cells. Staining of cells was with fluorescently labeled anti-CD45 (BioLegend), anti-CD3 (BioLegend), anti-CD4 (BioLegend), anti-CD8 (BD Biosciences), anti-CD25 (BioLegend). Prior to staining with anti-FoxP3 (eBioscience), and anti-Ki67 (eBioscience) the cells were permeabilized. Stained cells were analyzed by fluorescent activate cell sorting (FACS) for the percentages of CD4+, CD8+, and CD25 Foxp3+(Tregs) cells of the live (Live/Dead Aqua purchased from Life) CD45 positive cells, as well as the percentage of these three cell populations that were Ki67 positive, a marker of cell proliferation.

[4] = multi-dose, compared to parental antibody (9D9.IgG2a)

Sequence of murine CTLA4 (muCTLA4hsIgG protein) (P09793 36-161 limits assumed): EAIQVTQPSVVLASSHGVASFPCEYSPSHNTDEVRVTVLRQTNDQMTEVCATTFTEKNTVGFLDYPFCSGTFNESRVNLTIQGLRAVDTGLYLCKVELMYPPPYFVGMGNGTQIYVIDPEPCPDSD

B1: activatable masked anti-CTLA4 antibody: 9D9 masked with CNLIVEGHC via MMP2/7/9 cleavable linker; light chain SEQ ID NO:238, heavy chain SEQ ID NO:319 (antibody)
heavy: EAKLQESGPVLVKPGASVKMSCKASGYTFTDYYMNWVKQSHGKSLEWIGVINPYNGDTSYNQKFKGKATLTVDKSSSTAYMELNSLTSEDSAVYYCARYYGSWFAYWGQGTLITVSSAKTTAPSVYPLAPVCGDTTGSSVTLGCLVKGYFPEPVTLTWNSGSLSSGVHTFPAVLQSDLYTLSSSVTVTSSTWPSQSITCNVAHPASSTKVDKKIEPRGPTIKPCPPCKCPAPNLLGGPSVFIFPPKIKDVLMISLSPIVTCVVVDVSEDDPDVQISWFVNNVEVHTAQTQTHREDYNSTLRVVSALPIQHQDWMSGKEFKCKVNNKDLPAPIERTISKPKGSVRAPQVYVLPPPEEEMTKKQVTLTCMVTDFMPEDIYVEWTNNGKTELNYKNTEPVLDSDGSYFMYSKLRVEKKNWVERNSYSCSVVHEGLHNHHTTKSFSRTPGK
light: ACNLIVEGHCGGSVPLSLYSGGGDIVMTQTTLSLPVSLGDQASISCRSSQSIVHSNGNTYLEWYLQKPGQSPKLLIYKVSNRFSGVPDRFSGSGSGTDFTLKISRVEAEDLGVYYCFQGSHVPYTFGGGTKLEIKRADAAPTVSIFPPSSEQLTSGGASVVCFLNNFYPKDINVKWKIDGSERQNGVLNSWTDQDSKDSTYSMSSTLTLTKDEYERHNSYTCEATHKTSTSPIVKSFNRNEC
EC50 ([1]; treated with recombinant MMP2): 0.29 ± 0.03 nM | fold lower binding to murine CTLA4 as compared to parental anti-CTLA4 antibody ([1]; without protease, listed as Masked 9D9): approximately 156 fold | binding to murine CTLA4 after protease activation (murine CTLA4-Fc): fully restored binding | proliferating (Ki67+ FOXP3+) Tregs in the spleens (MC38 tumors [2]; doses on days 1, 4, and 8, 24 hours after last dose): marginal increases | intratumoral Treg abundance (MC38 tumors [2]; doses on days 1, 4, and 8, 24 hours after last dose, flow cytometry): as effective in reducing Tregs as parental anti-CTLA4 antibody | growth of subcutaneously implanted MC38 tumors (MC38 tumors [2]; i.p. on day 1 post-randomization): induced tumor regression | proliferation of CD4+ cells in the periphery (spleen), % Ki67+ (MC38 tumors [3]; [4]): reduced proliferation | proliferation of CD8+ T cells in the periphery (spleen), % Ki67+ (MC38 tumors [3]; [4]): reduced proliferation | tumor volume (MC38 tumors [3]; single dose of 200 μg intraperitoneally): equivalent efficacy in reducing tumor volume | regulatory T lymphocytes (Tregs) population in the tumor (MC38 tumors [3]; three doses on day 1, 4, and 8, day 9): preferentially depleted
